Measured values published in US20240352099A1 (JULIUS MAXIMILIANS UNIVERSIT T W RZBURG, published 2024).

Legend:
[1] = molecular target: T1, Pra1 on C. albicans strain SC5314 hyphae (Candida albicans, UniProt P87020 16-299); assay: flow cytometry and confocal microscopy, summary
T1 construct: whole, on cells; The stained target is the whole fungal cell; also called C. albicans hyphae
T1 sequence (looked up): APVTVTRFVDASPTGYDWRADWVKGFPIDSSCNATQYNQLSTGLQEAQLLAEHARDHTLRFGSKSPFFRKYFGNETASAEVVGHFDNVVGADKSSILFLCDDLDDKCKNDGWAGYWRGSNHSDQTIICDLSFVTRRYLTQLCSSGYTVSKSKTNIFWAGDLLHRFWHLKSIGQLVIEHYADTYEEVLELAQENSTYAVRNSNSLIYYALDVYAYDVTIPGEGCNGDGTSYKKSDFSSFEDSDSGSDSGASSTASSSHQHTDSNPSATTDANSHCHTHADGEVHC

[2] = molecular target: T2, Tef1 on C. albicans strain SC5314 hyphae (Candida albicans, UniProt P0CY35 2-458); assay: flow cytometry on C. albicans
T2 construct: whole, on cells; The stained target is the whole fungal cell; also called C. albicans hyphae
T2 sequence (looked up): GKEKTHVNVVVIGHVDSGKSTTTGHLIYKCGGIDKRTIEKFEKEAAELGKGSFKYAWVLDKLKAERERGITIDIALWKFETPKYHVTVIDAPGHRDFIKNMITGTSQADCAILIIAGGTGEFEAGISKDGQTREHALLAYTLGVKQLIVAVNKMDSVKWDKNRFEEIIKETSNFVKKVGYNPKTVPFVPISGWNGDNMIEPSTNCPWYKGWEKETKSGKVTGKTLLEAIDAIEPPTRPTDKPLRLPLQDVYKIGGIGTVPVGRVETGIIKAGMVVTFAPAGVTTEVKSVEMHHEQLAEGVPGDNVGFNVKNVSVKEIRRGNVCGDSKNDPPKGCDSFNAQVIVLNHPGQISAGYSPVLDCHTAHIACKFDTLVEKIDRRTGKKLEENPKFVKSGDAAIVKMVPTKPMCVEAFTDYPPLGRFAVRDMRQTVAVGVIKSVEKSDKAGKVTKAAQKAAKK

Row | Binder | binding result [1] | binding result [2]
1 | monoclonal antibody 8C3 directed against Pra1 of Candida albicans, produced by the hybridoma cell line DSM ACC 3369 (antibody, mouse IgG1, kappa, V domains shown, Mouse IgG1, kappa from hybridoma; also called mAb 8C3; anti-Pra1 mAb 8C3) VH: EVQLVESGGDLVKPGGSLKLSCAASGFTFSTYGMSWVRQTPDKRLEWVATISSGGSYTYYPDSVKGRFTISRDNVKNTLYLQMSSLKSEDTAMYYCARQGLDDNYAEWYFDVWGAGTTVTVSS VL: DILLTQSPATLSVTPGETVSLSCRASQSIYKNLHWYQQKSHRSPRLLIKYASDSISGIPSRFTGSGSGTDYTLSINSVKPEDEGKYYCLQGFSTPWTFGGGTKLEIKR | binds | 
2 | monoclonal antibody 5E1 directed against Tef1 of Candida albicans, produced by the hybridoma cell line DSM ACC 3368 (antibody, Mouse IgM, kappa from hybridoma; also called mAb 5E1; anti-Tef1 mAb 5E1) heavy: EVKLVESGGGLVKPGGSLKLSCAASGFTFSSYAMSWVRQTPEKRLEWVASISSGGSTYYPDSVKGRFTISRDNARNILYLQMSSLRSEDTAMYYCARGYDGYDYWGQGTTLTVSSESQSFPNVFPLVSCESPLSDKNLVAMGCLARDFLPSTISFTWNYQNNTEVIQGIRTFPTLRTGGKYLATSQVLLSPKSILEGSDEYLVCKIHYGGKNRDLHVPIPAVAEMNPNVNVFVPPRDGFSGPAPRKSKLICEATNFTPKPITVSWLKDGKLVESGFTTDPVTIENKGSTPQTYKVISTLTISEIDWLNLNVYTCRVDHRGLTFLKNVSSTCAASPSTDILTFTIPPSFADIFLSKSANLTCLVSNLATYETLNISWASQSGEPLETKIKIMESHPNGTFSAKGVASVCVEDWNNRKEFVCTVTHRDLPSPQKKFISKPNEVHKHPPAVYLLPPAREQLNLRESATVTCLVKGFSPADISVQWLQRGQLLPQEKYVTSAPMPEPGAPGFYFTHSILTVTEEEWNSGETYTCVVGHEALPHLVTERTVDKSTGKPTLYNVSLIMSDTGGTCY light: not shown |  | binds
